Target: H-NS (Salmonella enterica serovar Typhimurium …, UniProt A0A0F6B244 1-137)
Test: fluorescence anisotropy

Sequence of H-NS (A0A0F6B244 whole entry): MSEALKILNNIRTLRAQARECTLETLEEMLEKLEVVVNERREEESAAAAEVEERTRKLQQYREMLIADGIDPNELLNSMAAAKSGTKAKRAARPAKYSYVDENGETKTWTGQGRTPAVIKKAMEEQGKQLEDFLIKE

B1: 36 bp pagC high-affinity H-NS site (HAhnsBS) (dsDNA)
DNA 1: ATGGGTTTTATAGCGAAATAGACTTTTTTATCGCGT
DNA 2: ACGCGATAAAAAAGTCTATTTCGCTATAAAACCCAT
  binding result: binds
